Results from patent publication US20240343823A1 (Ablynx, published 2024).
Where two headings read alike, the source gives them in different places.

Experiments:
[1] = target: T1, human GPC3 on tumor cell lines (HepG2, Huh-7, NCI-H661, MKN-45, NCI-H23, BxPC-3, NCI-H292) (human, UniProt P51654 25-554); assay: flow cytometry on HepG2 and Huh-7 cells
T1 construct: Endogenous GPC3 of human cancer cell lines; also called GPC3 on HepG2; GPC3 on Huh-7
Protocol: (§1) Periplasmic extracts were screened for human and cyno GPC3 binding in flow cytometry using CHO Flp-In cells (Invitrogen cat nr. K6010) expressing either human GPC3 (accession number P51654; Q25-R358, S359-H580) or cyno GPC3 (accession number P51654; Q3-R358; S359-H559), respectively. In brief, 1×10⁵ cells were incubated in 1:5 diluted periplasmic extracts for 30 min at 4° C., and then washed 3 times. As a control, the parental CHO Flp-In cell line (Invitrogen cat nr. K6010) was included. […] Samples were washed and resuspended in FACS Buffer (D-PBS (Gibco) with 10% FBS (Sigma) and 0.05% sodium azide (Merck)) supplemented with 5 nM TOPRO3 (Molecular Probes, cat nr T3605). Cell suspensions were then analyzed on a FACS Array. Gating was set on live, intact cells using forward/side scatter and TOPRO3 channel fluorescence parameters.
Variants were evaluated for binding to HepG2, Huh-7 and CHO Flip-In cyno-GPC3 cells by flow cytometry, as described in Example 1.

[2] = target: T2, cyno GPC3 expressed on CHO Flp-In cells (cynomolgus); assay: flow cytometry on CHO Flp-In cyno GPC3 cells
T2 construct: range 3-559; On cells; also called cyGPC3 CHO; CHO-cGPC3

[3] = target: T1, human GPC3 on tumor cell lines (HepG2, …); assay: flow cytometry on HepG2 cells
[4] = target: T2, cyno GPC3 expressed on CHO Flp-In cells; assay: flow cytometry on CHO Flp-In cyno GPC3 cells; remark: listed apart in the source
[5] = target: T1, human GPC3 on tumor cell lines (HepG2, …); assay: flow cytometry on Huh-7 cells
[6] = target: T2, cyno GPC3 expressed on CHO Flp-In cells; assay: flow cytometry, periplasmic extract on CHO Flp-In cyno GPC3 against parental CHO
Protocol: as §1

[7] = target: T3, human GPC3 expressed on CHO Flp-In cells (human, UniProt P51654 25-554); assay: flow cytometry, periplasmic extract on CHO Flp-In human GPC3 against parental CHO
T3 construct: On cells; Q25-R358, S359-H580; also called hGPC3 CHO; CHO huGPC3
Protocol: as §1

[8] = target: T4, cyno Glypican-3 delta-GPI-HIS, in-house produced (cynomolgus); assay: SPR ProteOn XPR36, periplasmic extract over coated cyno GPC3
T4 construct: range 3-559; also called cyno GPC3; cyGPC3
Protocol: (§2) Off-rates of ISVDs were determined on a ProteOn XPR36 instrument (Bio-Rad Laboratories, Inc.). ProteOn GLC Sensor Chips were coated with cyno Glypican-3 AGPI-HIS (in-house produced; accession number P51654; Q3-R358; S359-H559) and human GPC3 (R&D Systems, cat nr. 2119-GP). Periplasmic extracts were diluted 1:10 in ProteOn PBS Tween buffer (PBS, pH 7.4, 0.005% Tween 20 (167-2720, BioRad)). Experiments were carried out at 25° C. Data obtained was double referenced by reference lane subtraction as well as subtraction of a blank buffer injection. Processed curves were used for off-rate analysis based on the Langmuir dissociation (off-rate analysis) model.

[9] = target: T5, recombinant human Glypican-3 (R&D Systems, cat nr. 2119-GP) (human, UniProt P51654 25-559); assay: SPR ProteOn XPR36, periplasmic extract over coated human GPC3
T5 construct: Bought protein; also called human GPC3; hGPC3
Protocol: as §2

[10] = target: T6, human serum albumin (Sigma cat no A8763) (human, UniProt P02768 25-609); assay: SPR ProteOn XPR36, serum albumin immobilized by amine coupling, 1:1 model
T6 construct: also called HSA
Protocol: (§3) Serum albumin proteins were immobilized on a GLC Sensor Chip (Biorad) via amine coupling, using EDC and NHS chemistry (running buffer: HBS-EP+, pH 7.4). Purified ISVDs were injected for 2 minutes (flow rate 45 μL/min) at different concentrations (between 0.24 nM and 500 nM) and dissociation was followed for 900 s. Regeneration was performed by injecting 10 mM Glycine-HCl (pH 1.5) for 47 seconds (flow rate 100 μL/min). Data was double referenced by subtracting a reference ligand lane and a blank buffer injection. Processed sensorgrams were analyzed based on the 1:1 interaction model (Langmuir binding model) using ProteOn Manager 3.1.0 (Version 3.1.0.6) software.

[11] = target: mouse serum albumin (DivBioScience cat no IMSA) (mouse, UniProt P07724 25-608); assay: as above
Protocol: as §3

[12] = target: T7, cyno serum albumin (in house produced from animal tissue) (cynomolgus); assay: as above
T7 construct: also called cynomolgus serum albumin
Protocol: as §3

[13] = target: T1, human GPC3 on tumor cell lines (HepG2, …); assay: cell-based or functional assay
[14] = target: T1, human GPC3 on tumor cell lines (HepG2, …); assay: flow cytometry on HepG2 cells; remark: listed apart in the source
[15] = target: T1, human GPC3 on tumor cell lines (HepG2, …); assay: flow cytometry on Huh-7 cells; remark: listed apart in the source
[16] = target: T2, cyno GPC3 expressed on CHO Flp-In cells; assay: flow cytometry on CHO Flp-In cyno GPC3 cells; remark: listed apart in the source

Chain of mouse serum albumin (DivBioScience cat no IMSA) (P07724 25-608 limits assumed): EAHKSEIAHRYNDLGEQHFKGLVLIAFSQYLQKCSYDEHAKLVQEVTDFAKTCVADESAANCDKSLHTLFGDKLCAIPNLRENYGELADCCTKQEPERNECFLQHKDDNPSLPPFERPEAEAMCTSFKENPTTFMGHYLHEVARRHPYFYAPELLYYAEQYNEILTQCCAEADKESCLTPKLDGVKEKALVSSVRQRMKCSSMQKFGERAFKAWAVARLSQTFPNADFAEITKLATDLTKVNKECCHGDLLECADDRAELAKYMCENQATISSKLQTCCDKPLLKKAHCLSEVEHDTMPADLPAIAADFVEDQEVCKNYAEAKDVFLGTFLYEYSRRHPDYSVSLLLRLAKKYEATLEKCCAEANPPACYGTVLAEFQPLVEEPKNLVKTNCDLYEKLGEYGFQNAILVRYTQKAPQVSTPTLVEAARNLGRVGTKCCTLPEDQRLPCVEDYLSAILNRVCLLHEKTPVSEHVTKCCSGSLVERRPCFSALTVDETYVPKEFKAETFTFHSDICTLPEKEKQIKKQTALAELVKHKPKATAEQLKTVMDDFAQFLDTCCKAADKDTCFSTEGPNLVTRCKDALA
T7 sequence (A2V9Z4 25-608): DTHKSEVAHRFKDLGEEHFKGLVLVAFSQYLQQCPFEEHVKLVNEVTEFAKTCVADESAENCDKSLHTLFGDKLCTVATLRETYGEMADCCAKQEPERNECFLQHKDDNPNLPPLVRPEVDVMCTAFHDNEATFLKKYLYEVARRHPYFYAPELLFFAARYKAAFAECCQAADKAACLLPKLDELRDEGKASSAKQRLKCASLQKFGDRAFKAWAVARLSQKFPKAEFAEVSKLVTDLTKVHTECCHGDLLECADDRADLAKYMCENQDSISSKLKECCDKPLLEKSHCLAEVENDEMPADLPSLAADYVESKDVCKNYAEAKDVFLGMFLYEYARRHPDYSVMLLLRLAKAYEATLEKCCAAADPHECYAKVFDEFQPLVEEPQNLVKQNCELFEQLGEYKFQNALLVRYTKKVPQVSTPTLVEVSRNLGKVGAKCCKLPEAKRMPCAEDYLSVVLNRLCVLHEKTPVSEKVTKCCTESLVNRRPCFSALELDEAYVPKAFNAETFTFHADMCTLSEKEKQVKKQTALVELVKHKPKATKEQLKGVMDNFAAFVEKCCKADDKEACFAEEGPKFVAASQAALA

B1: A022600314 (VHH)
VHH: EVQLVESGGGVVQPGGSLRLSCAASGSIFRSVFSSSTMEWYRQAPGKKRELVARIAPGEGTYYGALYADSVKGRFTISRDNAKNTVYLQMNSLRPEDTALYYCASGVAWGQGTLVTVSS
notes: also called A0226000314
- fold decrease in binding potency against parental A0226015A08 [1]: < 2 fold
- fold decrease in binding potency against parental A0226015A08 [2]: < 2 fold
- EC50 [3]: 16 nM
- EC50 [4]: 12 nM
- EC50 [5]: 9.3 nM

B2: A0226015A08 (VHH)
VHH: EVQLVESGGGLVQAGGSLRLSCVASGSIFRSVFSSSTMEWYRQPPGKKRELVARIAPGDGTNYGALYADSVKGRFTISRDDAKKTVDLQMNSLKPEDTGVYFCASGVAWGQGTLVTVSS
notes: Parental ISVD; also called A02260015A08; anti-GPC3 ISVD
- Ratio MFI cyGPC3 CHO/CHO [6]: 13.7
- Ratio MFI hGPC3 CHO/CHO [7]: 58.2
- EC50 [3]: 7.5 nM
- EC50 [4]: 7.8 nM
- koff [8]: 0.0004 s⁻¹
- EC50 [5]: 6.6 nM
- koff [9]: 0.00033 s⁻¹

B3: ALB223 (VHH)
VHH: EVQLVESGGGVVQPGGSLRLSCAASGFTFRSFGMSWVRQAPGKGPEWVSSISGSGSDTLYADSVKGRFTISRDNSKNTLYLQMNSLRPEDTALYYCTIGGSLSRSSQGTLVTVSS
notes: also called ALB23002-A
- Kd [10]: 0.88 nM
- Kd [11]: 5.3 nM
- Kd [12]: 0.57 nM

B4: A022600031 (bispecific antibody)
chain: DVQLVESGGGLVQPGGSLRLSCVASGDVHKINFLGWYRQAPGKEREKVAHISIGDQTDYADSAKGRFTISRDESKNMVYLQMNSLKPEDTAVYFCRAFSRIYPYDYWGQGTLVTVSSGGGGSGGGGSGGGGSGGGGSGGGGSGGGGSGGGGSEVQLVESGGGLVQAGGSLRLSCVASGSIFRSVFSSSTMEWYRQPPGKKRELVARIAPGDGTNYGALYADSVKGRFTISRDDAKKTVDLQMNSLKPEDTGVYFCASGVAWGQGTLVTVSSGGGGSGGGGSGGGGSGGGGSGGGGSGGGGSGGGGSEVQLVESGGGVVQPGGSLRLSCAASGLTFSSYAMGWFRQAPGKERERVVSISRGGGYTYYADSVKGRFTISRDNSENTVYLQMNSLRPEDTALYYCAAARYWATGSEYEFDYWGQGTLVTVSS
- IC50 (M), Incucyte human TDC HepG2-Nuclight green assay [13]: 1.5e-08 M

B5: A022600345 (VHH)
VHH: EVQLVESGGGVVQPGGSLRLSCAASGFTFSSFAMTWVRRPPGKGLEWVATITNAGVTSYADSVKGRFTISRDNAKNTLYLQMNSLRPEDTALYICANARRTGPRAPTDIGSYRGQGTLVTVSS
- fold increase in binding potency against parental A0226018C08 [1]: 2 fold
- fold increase in binding potency against parental A0226018C08 [2]: 2 fold
- EC50 [14]: 0.391 nM
- EC50 [15]: 0.276 nM
- EC50 [16]: 0.15 nM

B6: A0226018C08 (VHH)
VHH: EVQLVESGGGLVQPGGSLRLSCVASGFTFSSFAMTWVRRPPGKGLEWVATITNGGVTSYRDSVKGRFTISRDNAKNTLYLEMTSLNPEDTAVYICANARRTGPRAPTDIGSYRGQGTLVTVSS
notes: Parental ISVD; also called A02260018C08; anti-GPC3 ISVD
- Ratio MFI cyGPC3 CHO/CHO [6]: 19.9
- Ratio MFI hGPC3 CHO/CHO [7]: 159
- koff [8]: 0.0011 s⁻¹
- EC50 [14]: 0.915 nM
- EC50 [15]: 0.696 nM
- EC50 [16]: 0.49 nM
- koff [9]: 0.00097 s⁻¹

B7: A022600351 (VHH)
VHH: EVQLVESGGGVVQPGGSLRLSCAASGFTFSSFAMTWVRRPPGKGLEWVATITNKGVTSYADSVKGRFTISRDNAKNTLYLQMNSLRPEDTALYICANARRTGPRAPTDIGSYRGQGTLVTVSS
notes: also called A0226000351
- fold increase in binding potency against parental A0226018C08 [1]: 2 fold
- fold increase in binding potency against parental A0226018C08 [2]: 2 fold
- EC50 [14]: 0.431 nM
- EC50 [15]: 0.477 nM
- EC50 [16]: 0.21 nM

B8: A022600027 (other)
chain: DVQLVESGGGLVQPGGSLRLSCVASGDVHKINFLGWYRQAPGKEREKVAHISIGDQTDYADSAKGRFTISRDESKNMVYLQMNSLKPEDTAVYFCRAFSRIYPYDYWGQGTLVTVSSGGGGSGGGGSGGGGSGGGGSGGGGSGGGGSGGGGSEVQLVESGGGLVQPGGSLRLSCVASGFTFSSFAMTWVRRPPGKGLEWVATITNGGVTSYRDSVKGRFTISRDNAKNTLYLEMTSLNPEDTAVYICANARRTGPRAPTDIGSYRGQGTLVTVSSGGGGSGGGGSGGGGSGGGGSGGGGSGGGGSGGGGSEVQLVESGGGVVQPGGSLRLSCAASGLTFSSYAMGWFRQAPGKERERVVSISRGGGYTYYADSVKGRFTISRDNSENTVYLQMNSLRPEDTALYYCAAARYWATGSEYEFDYWGQGTLVTVSS
- IC50 (M), Incucyte human TDC HepG2-Nuclight green assay [13]: 8.6e-09 M
